Data taken from PMC10686828, “DMSOP-cleaving enzymes are diverse and widely distributed in marine microorganisms” (Nature Microbiology, 2023).

What was measured:
[1] = substrate: C[S+](C)(=O)CCC(=O)[O-]; experiment: HPLC of acrylate, initial rates, non-linear fit; assay type: biochemical, Emiliania huxleyi; details: pH 8, 30 °C
[2] = substrate: C[S+](C)(=O)CCC(=O)[O-]; experiment: HPLC of acrylate, initial rates, non-linear fit; assay type: biochemical, Candidatus Pelagibacter communis; details: pH 8, 30 °C
[3] = substrate: C[S+](C)(=O)CCC(=O)[O-]; experiment: HPLC of acrylate, initial rates, non-linear fit; assay type: biochemical, Alcaligenes faecalis; details: pH 8, 30 °C
[4] = substrate: C[S+](C)(=O)CCC(=O)[O-]; experiment: HPLC of DMSO, initial rates, non-linear fit; assay type: biochemical, Psychrobacter sp.; details: pH 8, 30 °C, CoA, ATP, Mg2+ present
[5] = substrate: C[S+](C)(=O)CCC(=O)[O-]; experiment: HPLC of acrylate, initial rates, non-linear fit; assay type: biochemical, Ruegeria pomeroyi; details: pH 8, 30 °C
Source text: HPLC of acrylate, initial rates, non-linear fit on DddW | Only the catalytic efficiency of DddW for DMSOP was similar to that for DMSP

B1: Alma1 (Emiliania huxleyi) (protein)
chain: MGNCTSHPHHEPQVHFDTVDGMATVKAFAGIRQVTMGVLRIDYEYQTNLGDILDPRSFDFRIISATAEGLTFAKAKAGDKLDATGKELLERAVRQLIDNGADFIVGDCGFLVYWQVMVRDYAQDYAQKKYGRKCPVMMSSLVLALPLLATIPSGGQIGILTASEKSLQAVQKKLPIVIEDHQKEDGGQRSRSVPAAEDPSGIMINFSDPRFKVVGLDEVKDFKHALDAQGADAVNDRRDIAVQIAAYCQKVQEKNPQIAAWLIECTEAGGFAWAIKVGTGLPVWDPITLGRFLSLGFTANVPNVALTLGQHGENPLDPSATTAGKGRCTGEEPGQIHALGAEFQAIREGTL
notes: pET-22b, C-terminal His tag, E. coli BL21(DE3); Ni-NTA and gel filtration
Km [1]: 8.8 ± 1.1 mM
kcat [1]: 0.2 ± 0.01 s⁻¹

B2: DddK (Candidatus Pelagibacter ubique HTCC1062) (protein)
chain: MIFVKNLASVLSQEWSSTEKYPGVRWKFLIDADFDGSSGLSLGFAEIAPGGDLTLHYHSPAEIYVVTNGKGILNKSGKLETIKKGDVVYIAGNAEHALKNNGKETLEFYWIFPTDRFSEVEYFPAKQKSG
notes: pET-22b, C-terminal His tag, E. coli BL21(DE3); Ni-NTA and gel filtration; dimer in asymmetric unit; Mn2+
Km [2]: 24.1 ± 3.4 mM
kcat [2]: 14.8 ± 0.9 s⁻¹

B3: A. faecalis DddY (Alcaligenes faecalis) (protein)
chain: AQFQCQDDVKPAAISAEEQKLVDQFWAESLVYLEQYLKALETPTGQCKDSAQATIQTYHSETGKAQTRCIMKYRDMELLAKHLKAVLAEPDKAKACFDPQKNYKEFTLYTPSSQVQQLSATSTWINRPLLTDYYTKMGGAIGAAGLELNENFLAITSRTDTTAHWTRDVSIKGLPTLWSSVGWVPLYAENPAAGSDRFRGGYLYAELMGPWGNLRIKEINGEKVGAEIGMTVQLFNTSYPFHYHHPQETYMTLTKPQCVDQNKYMVMHWDSDQFTQTRSDKGWTVEIDGSKERWKKWFANQDVNKEWLTYFERNAIHAFHALEGCNQTIQNSGLVAVWARSTSQDNEQFTQLCRPASGPDGVKRMRPGQKTVCDVRDWKP
notes: as for B1
Km [3]: 41.0 mM
kcat [3]: 26.5 s⁻¹

B4: DddX (Psychrobacter sp.) (protein)
chain: LTGQIIEYTIKIQTIYTGNFKHKNGFLKMIERGIAMKKENLKILAKKAQTIAIVGANYRFATRVLLENLDKMDFTGTIYLVNPRYENIDGVRCYQSLLEIEDTIDVVVGLVNPQLMIQVASNASKINAKVLVIPGGGYGESGVEGQNIQNAILERAADSGMRIVGPNCMGYLNMHAQFTPYIGTLHRPLRPIKKGPVSIISQSGSVNDAFIASKLGISKIYSTGNEADVQMHDYLNLLAEDPETSVIILYIEAIRNHLSFLRALDLCSKNKKPVIAIKVGRTIKSAAVANAHSGALAGDYEIEKLFLEGHGVLFVEDIDQAVAVALLLSQPYLPTVNTVAALTVSGGQAGILLDLAEDYGVDFPDFSAVTNYEIASKLPELGGLSNPLDIWGKSSKDFSEVSNICLSSIVKDADIGIITVAIDAPIGQGDHEFDFTSIPAKDLASLRGNSDKPFLYFSHIQTEFDPRVESILDEAGIAVIQGSRNALVACRALFKYKEFLEKNNHTPIYSVEDLSIQKGLKLLHDNEGRKLLDESGFVSPREQVVTSLQEGVDYAESIGYPVVLKAQGLAHKTDVGGVALNIKSAAKLKKAWGKMEHLNSPYYLIQEMVTDGFETILAYRTDMNYGPVVIFGLGGIYTELFNEVVLAVPPITHKKAEQMVKSIPMLWKSIEGYRGNPALDLEALTASIVQMGETAMEKYEEIVEFEINPLSVRVKGVVALDVLASVKTTAAKEADAEEADVKKCSELV
notes: as for B1
Km [4]: 1 ± 0.2 mM

B5: DddW (Ruegeria pomeroyi DSS-3) (protein)
chain: MTAMLDSFATDLTAATSLHQPGNLPHPPHAIDAENVPLSGGTDPTYGEVRWRTLINGTEAAPRDMVLGIAEFGPGHQLRPHRHTPPEFYLGLEGSGIVTIDGVPHEIRAGVALYIPGDAEHGTVAGPEGLRFAYGFASASFEAIEYRFTASA
notes: pET-22b, C-terminal His tag, E. coli BL21(DE3)
Km [5]: 11.2 ± 1.6 mM
kcat [5]: 26.7 ± 3.9 s⁻¹
